Tests used:
[1] = target: human sAPPβ (MESO SCALE DISCOVERY) (human) (UniProt P05067); test: SPR (ProteOn, GLM chip), 5H10 immobilised, sAPPβ as analyte
[2] = target: human sAPPβ (MESO SCALE DISCOVERY) (human) (UniProt P05067); test: SPR (ProteOn), 5H10 immobilized on GLM chip, sAPPβ as analyte at 1000, 250, 62.5, 15.6, 3.91 nM

Chain of human sAPPβ (MESO SCALE DISCOVERY) (human) (P05067 18-671): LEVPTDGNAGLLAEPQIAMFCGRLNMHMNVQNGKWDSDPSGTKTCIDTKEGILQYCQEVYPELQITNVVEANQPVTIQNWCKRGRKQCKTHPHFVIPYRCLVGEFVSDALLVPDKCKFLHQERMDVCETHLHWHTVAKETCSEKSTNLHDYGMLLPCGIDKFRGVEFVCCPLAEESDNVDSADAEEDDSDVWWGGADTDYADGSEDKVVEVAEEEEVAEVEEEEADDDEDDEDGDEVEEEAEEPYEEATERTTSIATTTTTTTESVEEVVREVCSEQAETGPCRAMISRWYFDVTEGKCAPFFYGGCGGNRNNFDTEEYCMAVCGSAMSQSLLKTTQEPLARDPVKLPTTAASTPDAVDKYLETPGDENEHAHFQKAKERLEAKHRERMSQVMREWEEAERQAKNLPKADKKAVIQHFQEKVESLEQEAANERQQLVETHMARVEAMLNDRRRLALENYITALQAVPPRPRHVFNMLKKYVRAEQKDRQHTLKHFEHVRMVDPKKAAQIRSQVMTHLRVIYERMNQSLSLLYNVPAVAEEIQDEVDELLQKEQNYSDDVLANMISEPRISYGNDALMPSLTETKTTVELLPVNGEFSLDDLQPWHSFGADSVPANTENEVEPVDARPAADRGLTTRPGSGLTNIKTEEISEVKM

koff [1]: 5.62e-05 s⁻¹ | kon [1]: 90800 M⁻¹ s⁻¹ | Kd [2]: 0.62 nM
B1: anti-internal structure antibody 5H10 (antibody, IgG1, V domains shown)
VH: QVQLQQSGTELAKPGASVKMSCKASGYTFIDYWMHWIKQSPGQGLEWIGFINPRSGSTTYNQKFRDKATLTVDTSSSTAYMQLTSLTSEDSAVYYCTRPDFDYFDYWGQGTTLTVSS
VL: DVLMTQTPLSLPVSLGDHASISCRSSQSIVQSNGNTYLEWYLQKPGQSPKLLIYKVSNRFSGVPDRFSGSGSGTDFTLKISSVEAEDLGIYYCFQASHVPLTFGAGTKLELKR
